According to EP4674868A1 (Jiangsu Hengrui Pharmaceuticals Co., Ltd., dated 2026):
Like-named read-outs stand apart in the source and are kept apart here.

How the values were obtained:
[1] = target: T1, human CD40 on the surface of HEK293 cells (HEK293-HuCD40) (human, UniProt P25942 21-277); test: cell-based or functional assay
[2] = target: T1, human CD40 on the surface of HEK293 …; test: FACS, HEK293 cells transiently expressing human CD40
[3] = target: T2, human 4-1BB on the surface of HEK293 cells (HEK293-Hu4-1BB) (human, UniProt Q07011 24-255); test: cell-based or functional assay
[4] = target: T2, human 4-1BB on the surface of HEK293 …; test: cell-based or functional assay; remark: listed apart in the source
[5] = target: T3, human FAP on the surface of CHO-K1 cells (CHO-K1-HuFAP) (human, UniProt Q12884 1-760); test: FACS, CHO-K1-HuFAP cells
T3 construct: whole, on cells; also called CHO cell line overexpressing human FAP; FAP on the surface of CHO-K1-HuFAP cells

[6] = target: T2, human 4-1BB on the surface of HEK293 …; test: FACS, HEK293-Hu4-1BB cells
[7] = target: T2, human 4-1BB on the surface of HEK293 …; test: FACS, HEK293-Hu4-1BB cells; remark: listed apart in the source
[8] = target: T1, human CD40 on the surface of HEK293 …; test: cell-based or functional assay; remark: listed apart in the source
[9] = target: T1, human CD40 on the surface of HEK293 …; test: FACS, HEK293-HuCD40 cells
[10] = target: T1, human CD40 on the surface of HEK293 …; test: FACS, HEK293-HuCD40 cells; remark: listed apart in the source
[11] = target: T3, human FAP on the surface of CHO-K1 …; test: FACS, CHO-K1-HuFAP cells; remark: listed apart in the source
[12] = target: T1, human CD40 on the surface of HEK293 …; test: cell-based or functional assay; remark: listed apart in the source
[13] = target: T2, human 4-1BB on the surface of HEK293 …; test: cell-based or functional assay; remark: listed apart in the source
[14] = target: T2, human 4-1BB on the surface of HEK293 …; test: FACS, HEK293-Hu4-1BB cells; remark: listed apart in the source
[15] = target: T1, human CD40 on the surface of HEK293 …; test: FACS, HEK293-HuCD40 cells; remark: listed apart in the source
[16] = target: T3, human FAP on the surface of CHO-K1 …; test: FACS, CHO-K1-HuFAP cells; remark: listed apart in the source
[17] = target: T3, human FAP on the surface of CHO-K1 …; test: FACS, CHO cell line overexpressing human FAP
[18] = target: T4, h-FAP-His (recombinant human fibroblast activation protein, Leu26-Asp760, His-tagged) (human, UniProt Q12884 26-760); test: SPR, antibody captured by anti-human IgG (Fc) on CM5 chip, h-FAP-His as analyte
T4 construct: range 26-760; Bought protein with a His tag; also called human FAP-His protein; His-tagged FAP recombinant protein

[19] = target: T4, h-FAP-His (recombinant human fibroblast …); test: ELISA, plate coated with human FAP-His

B1: anti-CD40 nanobody A297 linked to human IgG1-Fc (C220A, S267E, L328F) (Fc fusion)
chain: QVQLVESGGGMVEPGGSLRLSCAASGFTFSRYGMKWVRQAPGKGPEWVSTINSHGDTTYYADSVKGRFTISRDNAQNTVYLQMNSLKPEDTALYYCLRIDYSDYSSRGQGTQVTVSSEPKSADKTHTCPPCPAPELLGGPSVFLFPPKPKDTLMISRTPEVTCVVVDVEHEDPEVKFNWYVDGVEVHNAKTKPREEQYNSTYRVVSVLTVLHQDWLNGKEYKCKVSSKAFPAPIEKTISKAKGQPREPQVYTLPPSRDELTKNQVSLTCLVKGFYPSDIAVEWESNGQPENNYKTTPPVLDSDGSFFLYSKLTVDKSRWQQGNVFSCSVMHEALHNHYTQKSLSLSPGK
notes: VHH-Fc; no linker between VHH and Fc is stated
FcγRIIb-mediated activation of HEK-Blue CD40L cells, EC50 [1]: 0.243 nM | EC50 [2]: 1.12 nM

B2: humanized anti-CD40 nanobody A297V3 linked to human IgG1-Fc (C220A, S267E, L328F) (Fc fusion)
chain: EVQLVESGGGLVQPGGSLRLSCAASGFTFSRYGMKWVRQAPGKGLEWVSTINSHGDTTYYADSVKGRFTISRDNAKNSLYLQMNSLRAEDTAVYYCLRIDYSDYSSRGQGTLVTVSSEPKSADKTHTCPPCPAPELLGGPSVFLFPPKPKDTLMISRTPEVTCVVVDVEHEDPEVKFNWYVDGVEVHNAKTKPREEQYNSTYRVVSVLTVLHQDWLNGKEYKCKVSSKAFPAPIEKTISKAKGQPREPQVYTLPPSRDELTKNQVSLTCLVKGFYPSDIAVEWESNGQPENNYKTTPPVLDSDGSFFLYSKLTVDKSRWQQGNVFSCSVMHEALHNHYTQKSLSLSPGK
notes: VHH-Fc
FcγRIIb-mediated activation of HEK-Blue CD40L cells, EC50 [1]: 0.006 nM | EC50 [2]: 1.25 nM

B3: RO7122290 (FAP/4-1BBL bispecific antibody molecule, control) (bispecific antibody, human IgG1, kappa, L234A L235A)
heavy 1: not shown
heavy 2: EVQLLESGGGLVQPGGSLRLSCAASGFTFSSYAMSWVRQAPGKGLEWVSAIIGSGASTYYADSVKGRFTISRDNSKNTLYLQMNSLRAEDTAVYYCAKGWFGGFNYWGQGTLVTVSSASTKGPSVFPLAPSSKSTSGGTAALGCLVKDYFPEPVTVSWNSGALTSGVHTFPAVLQSSGLYSLSSVVTVPSSSLGTQTYICNVNHKPSNTKVDKKVEPKSCDKTHTCPPCPAPEAAGGPSVFLFPPKPKDTLMISRTPEVTCVVVDVSHEDPEVKFNWYVDGVEVHNAKTKPREEQYNSTYRVVSVLTVLHQDWLNGKEYKCKVSNKALGAPIEKTISKAKGQPREPQVCTLPPSRDELTKNQVSLSCAVKGFYPSDIAVEWESNGQPENNYKTTPPVLDSDGSFFLVSKLTVDKSRWQQGNVFSCSVMHEALHNHYTQKSLSLSPGK
light 1: not shown
light 2: EIVLTQSPGTLSLSPGERATLSCRASQSVTSSYLAWYQQKPGQAPRLLINVGSRRATGIPDRFSGSGSGTDFTLTISRLEPEDFAVYYCQQGIMLPPTFGQGTKVEIKRTVAAPSVFIFPPSDEQLKSGTASVVCLLNNFYPREAKVQWKVDNALQSGNSQESVTEQDSKDSTYSLSSTLTLSKADYEKHKVYACEVTHQGLSSPVTKSFNRGEC
4-1BB/NF-κB luciferase reporter, CD40-crosslinked, Fold change in Emax [3]: 1.22 fold | 4-1BB/NF-κB luciferase reporter, FAP-crosslinked, EC50 [3]: 0.032 nM | 4-1BB/NF-κB luciferase reporter, FAP-crosslinked, Fold change in Emax [3]: 9.38 fold | 4-1BB/NF-κB luciferase reporter, uncrosslinked, Fold change in Emax [3]: 3.6 fold | 4-1BB/NF-κB luciferase reporter, CD40-crosslinked, Fold change in Emax [4]: 2.3 fold | 4-1BB/NF-κB luciferase reporter, FAP-crosslinked, EC50 [4]: 0.04 nM | 4-1BB/NF-κB luciferase reporter, FAP-crosslinked, Fold change in Emax [4]: 9.95 fold | 4-1BB/NF-κB luciferase reporter, uncrosslinked, Fold change in Emax [4]: 5.97 fold | EC50 [5]: 1.33 nM | Maximum fluorescence value [5]: 48400 | EC50 [6]: 0.573 nM | Maximum fluorescence value [6]: 8440 | Maximum fluorescence value [7]: 10800 | CD40/NF-κB reporter (HEK-Blue CD40L), 4-1BB-crosslinked, Fold change in Emax [8]: 1 fold | CD40/NF-κB reporter (HEK-Blue CD40L), FAP-crosslinked, Fold change in Emax [8]: 1 fold | CD40/NF-κB reporter (HEK-Blue CD40L), uncrosslinked, Fold change in Emax [8]: 0.98 fold | Maximum fluorescence value [9]: 2330 | Maximum fluorescence value [10]: 89 | EC50 [11]: 2.48 nM | Maximum fluorescence value [11]: 44200 | CD40/NF-κB reporter (HEK-Blue CD40L), 4-1BB-crosslinked, Fold change in Emax [12]: 1 fold | CD40/NF-κB reporter (HEK-Blue CD40L), FAP-crosslinked, Fold change in Emax [12]: 1 fold | CD40/NF-κB reporter (HEK-Blue CD40L), uncrosslinked, Fold change in Emax [12]: 0.99 fold | 4-1BB/NF-κB luciferase reporter, CD40-crosslinked, Fold change in Emax [13]: 1.77 fold | 4-1BB/NF-κB luciferase reporter, FAP-crosslinked, EC50 [13]: 0.04 nM | 4-1BB/NF-κB luciferase reporter, FAP-crosslinked, Fold change in Emax [13]: 15.4 fold | 4-1BB/NF-κB luciferase reporter, uncrosslinked, Fold change in Emax [13]: 6.03 fold | EC50 [14]: 0.67 nM | Maximum fluorescence value [14]: 8200 | Maximum fluorescence value [15]: 106 | EC50 [16]: 1.92 nM | Maximum fluorescence value [16]: 112000

B4: anti-human FAP monoclonal antibody Ab10 (antibody, human IgG1, kappa, L234A L235A, V domains shown)
VH: QVQLQQSGVEVKKPGASVTVSCRASGYSFADHFIHWVRQAPGQGFQWMGWINPNRGVTHHAQDFQGRVAMTRDMSTDTVYMELTSLRSDDTAVYYCARDASLTARPYYFYGFDVWGQGTLVTVSS
VL: DIQMTQSPSSVSASVGDRVTITCRASQGISSWLAWYQQKPGKAPKLLIYAASSLQSGVPSRFSGSGSGTDFTLTISSLQPEDFATYYCQQANSFPPAFGQGTKVEIKR
notes: Full-length heavy and light chains with human constant regions; also called anti-FAP antibody Ab10
EC50 [17]: 0.000432 µg/mL | Kd [18]: 0.245 nM | Ratio of KD of 28H1 to KD of test antibody [18]: 5.3 | Ratio of Kd of 28H1 to Kd of test antibody [18]: 3.5 | koff [18]: 7.28e-05 s⁻¹ | kon [18]: 297000 M⁻¹ s⁻¹ | EC50 [19]: 92 µg/mL
